{"source": "the RNAGym collection of RNA variant scans (doi:10.7554/elife.80360)", "parents": {"B1": {"name": "Hairpin Ribozyme (parent)", "chain": "GUCCUCUUUCACGUGCGCGUGAAAGAGAGAAGUGAACCAGAGAAACACACGUUGUGGUAUAUUACCUGGUA"}}}
{"variants_of": "B1", "test": "self-cleavage, relative activity (ratio to wild type); higher = more cleavage; co-transcriptional"}
{"variant": "A43U G54A", "self-cleavage": 0.128}
{"variant": "A43U G54C", "self-cleavage": 0.0498}
{"variant": "C46U U52C", "self-cleavage": 0.215}
{"variant": "A43G A49C", "self-cleavage": 0.116}
{"variant": "A43G A49U", "self-cleavage": 0.197}
{"variant": "A45G U70C", "self-cleavage": 0.0703}
{"variant": "C46U U70C", "self-cleavage": 0.161}
{"variant": "A45U C66U", "self-cleavage": 0.117}
{"variant": "A45U C66A", "self-cleavage": 0.204}
{"variant": "C46G C48A", "self-cleavage": 0.204}
{"variant": "C46G C48U", "self-cleavage": 0.156}
{"variant": "A45C U53G", "self-cleavage": 0.138}
{"variant": "C46U U58C", "self-cleavage": 0.221}
{"variant": "C46U C50G", "self-cleavage": 0.0749}
{"variant": "A44U C50U", "self-cleavage": 0.252}
{"variant": "C46G A47C", "self-cleavage": 0.125}
{"variant": "C46G A47G", "self-cleavage": 0.136}
{"variant": "A43G C48G", "self-cleavage": 0.139}
{"variant": "C46A A71C", "self-cleavage": 0.342}
{"variant": "A44G G57A", "self-cleavage": 0.123}
{"variant": "A43G A71C", "self-cleavage": 0.458}
{"variant": "A43G A71G", "self-cleavage": 0.165}
{"variant": "A43G A71U", "self-cleavage": 0.16}
{"variant": "A44C A61U", "self-cleavage": 0.212}
{"variant": "A47G C48A", "self-cleavage": 0.122}
{"variant": "A47C A61U", "self-cleavage": 0.137}
{"variant": "A43U A61G", "self-cleavage": 0.144}
{"variant": "A43U A61C", "self-cleavage": 0.123}
{"variant": "A45U U58C", "self-cleavage": 0.0664}
{"variant": "C46G U67G", "self-cleavage": 0.198}
{"variant": "C46G U67C", "self-cleavage": 0.173}
{"variant": "A45U U62G", "self-cleavage": 0.178}
{"variant": "A45U U62A", "self-cleavage": 0.149}
{"variant": "A45G C66G", "self-cleavage": 0.122}
{"variant": "A45G C66A", "self-cleavage": 0.176}
{"variant": "A45G U55A", "self-cleavage": 0.121}
{"variant": "A45C A64U", "self-cleavage": 0.223}
{"variant": "A45C A64C", "self-cleavage": 0.138}
{"variant": "A45C C46A", "self-cleavage": 0.152}
{"variant": "A45C C46U", "self-cleavage": 0.067}
{"variant": "C46G G54C", "self-cleavage": 0.0768}
{"variant": "C46A U62G", "self-cleavage": 0.0929}
{"variant": "C46G U60A", "self-cleavage": 0.091}
{"variant": "C46G U60G", "self-cleavage": 0.151}
{"variant": "C46G C50U", "self-cleavage": 0.185}
{"variant": "A43U C48A", "self-cleavage": 0.206}
{"variant": "C46A G69A", "self-cleavage": 0.13}
{"variant": "C46G U62A", "self-cleavage": 0.148}
{"variant": "A43G C50A", "self-cleavage": 0.131}
{"variant": "A44U A71C", "self-cleavage": 0.3}
{"variant": "A44U A71U", "self-cleavage": 0.256}
{"variant": "A45G U58A", "self-cleavage": 0.174}
{"variant": "A44C U62A", "self-cleavage": 0.156}
{"variant": "A45G A49C", "self-cleavage": 0.103}
{"variant": "C46U A64C", "self-cleavage": 0.0758}
{"variant": "A44G A47C", "self-cleavage": 0.222}
{"variant": "A44G A47U", "self-cleavage": 0.163}
{"variant": "A45U G56U", "self-cleavage": 0.208}
{"variant": "A43G G69A", "self-cleavage": 0.0947}
{"variant": "A44G U55G", "self-cleavage": 0.185}
{"variant": "A47C U67A", "self-cleavage": 0.128}
{"variant": "A44U A59G", "self-cleavage": 0.253}
{"variant": "A44U A59U", "self-cleavage": 0.0331}
{"variant": "A45G U53A", "self-cleavage": 0.234}
{"variant": "C46A A59C", "self-cleavage": 0.3}
{"variant": "C46A A59U", "self-cleavage": 0.109}
{"variant": "A45U G54C", "self-cleavage": 0.23}
{"variant": "A45U G54U", "self-cleavage": 0.0699}
{"variant": "A45U G54A", "self-cleavage": 0.138}
{"variant": "A47G U55G", "self-cleavage": 0.139}
{"variant": "A47G U55A", "self-cleavage": 0.184}
{"variant": "A45C G68C", "self-cleavage": 0.119}
{"variant": "A45C U60C", "self-cleavage": 0.293}
{"variant": "A43U G69A", "self-cleavage": 0.119}
{"variant": "A43U G69C", "self-cleavage": 0.119}
{"variant": "A44G U63C", "self-cleavage": 0.21}
{"variant": "A44G U63G", "self-cleavage": 0.239}
{"variant": "C46A A47C", "self-cleavage": 0.0767}
{"variant": "A44U U60C", "self-cleavage": 0.103}
{"variant": "A45G G68A", "self-cleavage": 0.122}
{"variant": "A45G G68U", "self-cleavage": 0.223}
{"variant": "A45U C65G", "self-cleavage": 0.155}
{"variant": "C46U U63C", "self-cleavage": 0.106}
{"variant": "A43U A47C", "self-cleavage": 0.178}
